One molecule from article PMC2695463, “Conformational flexibility and molecular interactions of an archaeal homologue of the Shwachman-Bodian-Diamond syndrome protein” can be followed below.

This data set addresses T1, mthSBDS (Methanothermobacter thermautotrophicus, UniProt O26781 1-232, R175M).
T1 sequence: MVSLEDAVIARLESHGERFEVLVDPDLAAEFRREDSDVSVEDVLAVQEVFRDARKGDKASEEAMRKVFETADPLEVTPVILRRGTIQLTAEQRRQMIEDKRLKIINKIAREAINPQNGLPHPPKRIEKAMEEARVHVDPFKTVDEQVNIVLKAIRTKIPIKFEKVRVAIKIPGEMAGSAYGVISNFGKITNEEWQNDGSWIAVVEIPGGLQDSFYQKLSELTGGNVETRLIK
Nature of the data set: EMSA; SPR: 10 mM HEPES pH 7.5, 150 mM NaCl, 5 uM EDTA, 0.05% P20, +/- 5 mM MgCl2, temperature not stated; SELEX: 25 mM Tris pH 7.5, 0.5 M NaCl; EMSA: protein 1e-12 to 1e-4 M, buffer not stated. The following applies: protein: recombinant; tags: N-terminal 19-aa extension with His6 (pET28a).

In the case of AAAAAAAAAAAAAAAAAAAAAAAAAAAAAA (ssRNA) [30-base poly(A) RNA], the binding result is “no binding”.
